Experiments:
[1] = target: T1, Lag3 (NCBI Reference Sequence: NP_002277.4) on Lag3-CHO cells (UniProt P18627 23-525, limits assumed); assay: flow cytometry on Lag3-CHO cells; blank P3 0.5%; the filing says V1-V5 did not bind
T1 construct: whole, on cells
T1 sequence (looked up): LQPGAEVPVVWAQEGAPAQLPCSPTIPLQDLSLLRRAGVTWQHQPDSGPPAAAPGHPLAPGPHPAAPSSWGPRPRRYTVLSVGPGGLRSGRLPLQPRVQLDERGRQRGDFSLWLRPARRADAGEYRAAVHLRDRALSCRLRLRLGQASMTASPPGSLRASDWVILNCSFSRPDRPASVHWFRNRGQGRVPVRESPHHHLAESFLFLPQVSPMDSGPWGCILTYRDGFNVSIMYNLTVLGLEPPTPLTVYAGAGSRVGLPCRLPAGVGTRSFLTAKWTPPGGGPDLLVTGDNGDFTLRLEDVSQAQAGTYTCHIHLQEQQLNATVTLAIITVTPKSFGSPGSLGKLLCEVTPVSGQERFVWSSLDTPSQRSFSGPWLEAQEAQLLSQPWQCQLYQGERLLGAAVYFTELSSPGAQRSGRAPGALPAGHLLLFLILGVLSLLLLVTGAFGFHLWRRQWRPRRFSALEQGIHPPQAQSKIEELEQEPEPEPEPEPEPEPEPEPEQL

[2] = target: T2, VISTA (NCBI Reference Sequence: NP_071436.1) on VISTA-CHO cells (UniProt Q9H7M9 33-311, limits assumed); assay: flow cytometry on VISTA-CHO cells
T2 construct: whole, on cells

[3] = target: T3, cynomolgus monkey B7-H3 (novoprotein CA61) (cynomolgus monkey); assay: ELISA, antigen coated at 2 µg/mL, anti-human kappa light chain HRP detection
T3 construct: Bought protein

antigen hB7-H3-His [4] = target: T4, antigen hB7-H3-His (human, UniProt Q5ZPR3 29-461); assay: as above
T4 construct: residues 1-28 are left out on that ground
T4 sequence: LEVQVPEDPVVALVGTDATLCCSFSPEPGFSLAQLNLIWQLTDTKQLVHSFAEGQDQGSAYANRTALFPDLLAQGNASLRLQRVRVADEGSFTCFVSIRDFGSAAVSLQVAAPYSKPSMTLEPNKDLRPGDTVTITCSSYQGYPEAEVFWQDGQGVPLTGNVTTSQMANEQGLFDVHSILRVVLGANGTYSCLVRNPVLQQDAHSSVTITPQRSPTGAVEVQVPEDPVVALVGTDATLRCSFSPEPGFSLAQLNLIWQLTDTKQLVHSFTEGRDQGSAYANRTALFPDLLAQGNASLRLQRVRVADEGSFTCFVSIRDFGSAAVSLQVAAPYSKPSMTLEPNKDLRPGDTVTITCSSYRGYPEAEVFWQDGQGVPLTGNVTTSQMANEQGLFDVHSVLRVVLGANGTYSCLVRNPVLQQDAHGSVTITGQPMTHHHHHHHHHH

hB7-H3-Fc = target: T5, hB7-H3-Fc; assay: ELISA on coated hB7-H3-Fc (2 ug/mL), HRP anti-human kappa secondary, A450, antibody from 300 nM in 3-fold dilutions; axis 'Concentration' has no unit, nM from p-1066
T5 construct: also called antigen hB7-H3-Fc

[5] = target: T6, Tim3 (NCBI Reference Sequence: NP_116171.3) on Tim3-CHO cells (UniProt Q8TDQ0 22-301, limits assumed); assay: flow cytometry on Tim3-CHO cells
T6 construct: whole, on cells

antigen hB7-H3-His [6] = target: T4, antigen hB7-H3-His; assay: SPR, BiaCore T200, ADC or antibody captured on Protein A chip, hB7-H3-His as analyte, 1:1 model
[7] = target: T7, mouse B7-H3 (SinoBiological, 50973-M08H) (mouse, UniProt Q8VE98 29-244); assay: ELISA, antigen coated at 2 µg/mL, Antibody V3 in 2-fold dilutions (EC50 cell in Table 12: NA)
T7 construct: Bought protein
T7 sequence (looked up): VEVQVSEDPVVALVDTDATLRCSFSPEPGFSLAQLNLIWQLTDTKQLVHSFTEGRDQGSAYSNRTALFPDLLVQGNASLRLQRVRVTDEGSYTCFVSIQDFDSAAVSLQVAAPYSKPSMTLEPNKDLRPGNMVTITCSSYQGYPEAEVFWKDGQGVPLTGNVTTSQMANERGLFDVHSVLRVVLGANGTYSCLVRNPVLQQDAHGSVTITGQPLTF

[8] = target: T8, B7-H3 on MDA-MB-468 cells (human, UniProt Q5ZPR3); assay: flow cytometry on MDA-MB-468 cells; blank V2-R 0.9%
T8 construct: endogenous, on the cell surface
T8 sequence (cell surface antigen, looked up): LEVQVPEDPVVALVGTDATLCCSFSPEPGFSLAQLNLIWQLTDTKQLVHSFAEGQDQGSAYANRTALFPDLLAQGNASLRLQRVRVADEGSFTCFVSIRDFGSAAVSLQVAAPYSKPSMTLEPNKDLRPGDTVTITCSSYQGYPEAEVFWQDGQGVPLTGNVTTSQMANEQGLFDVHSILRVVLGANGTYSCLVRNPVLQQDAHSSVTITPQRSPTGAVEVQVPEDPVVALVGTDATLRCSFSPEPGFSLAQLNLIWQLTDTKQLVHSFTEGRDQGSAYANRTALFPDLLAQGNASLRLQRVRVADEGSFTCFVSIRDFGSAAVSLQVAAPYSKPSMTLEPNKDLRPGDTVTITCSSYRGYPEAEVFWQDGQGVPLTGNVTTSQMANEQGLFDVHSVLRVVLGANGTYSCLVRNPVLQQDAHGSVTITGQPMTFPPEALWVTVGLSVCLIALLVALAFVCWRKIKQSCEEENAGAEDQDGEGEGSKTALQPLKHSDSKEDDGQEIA

[9] = target: T6, Tim3 (NCBI Reference Sequence: …); assay: flow cytometry on Tim3-CHO cells; blank P3 0.2%; the filing says V1-V5 did not bind
[10] = target: T2, VISTA (NCBI Reference Sequence: …); assay: flow cytometry on VISTA-CHO cells; blank P3 0.1%; the filing says V1-V5 did not bind
[11] = target: T1, Lag3 (NCBI Reference Sequence: …); assay: flow cytometry on Lag3-CHO cells
antigen hB7-H3-His [12] = target: T4, antigen hB7-H3-His; assay: SPR, BiaCore T200, ADC or antibody captured on Protein A chip, hB7-H3-His as analyte, 1:1 model; naked Antibody V3, not conjugated

T5 sequence (fusion chain, as listed by the source limits assumed): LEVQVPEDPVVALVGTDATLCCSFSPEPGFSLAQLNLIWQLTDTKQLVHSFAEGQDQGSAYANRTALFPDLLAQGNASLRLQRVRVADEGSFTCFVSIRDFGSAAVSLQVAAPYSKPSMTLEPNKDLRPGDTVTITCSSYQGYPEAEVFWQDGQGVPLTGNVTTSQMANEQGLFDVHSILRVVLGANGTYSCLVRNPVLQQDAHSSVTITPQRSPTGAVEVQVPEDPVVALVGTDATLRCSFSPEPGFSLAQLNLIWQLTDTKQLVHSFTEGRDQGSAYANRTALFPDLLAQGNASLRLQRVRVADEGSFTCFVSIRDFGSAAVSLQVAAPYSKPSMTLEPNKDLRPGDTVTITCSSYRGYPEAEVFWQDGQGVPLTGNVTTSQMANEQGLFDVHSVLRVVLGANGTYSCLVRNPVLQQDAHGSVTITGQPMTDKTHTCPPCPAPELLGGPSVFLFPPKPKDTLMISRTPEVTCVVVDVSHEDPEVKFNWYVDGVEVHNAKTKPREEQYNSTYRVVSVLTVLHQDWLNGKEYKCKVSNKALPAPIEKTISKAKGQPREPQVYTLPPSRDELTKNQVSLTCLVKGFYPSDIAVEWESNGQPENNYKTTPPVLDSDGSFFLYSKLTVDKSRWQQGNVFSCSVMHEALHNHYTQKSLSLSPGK

- % of cells in gate P3 at 100 nM [1]: 0.6%
- binding result [2]: no binding (tested: 100 nM)
- EC50 [3]: 0.042 µg/mL
- EC50 (antigen hB7-H3-His [4]): 0.042 µg/mL
- EC50 (hB7-H3-Fc): 1.77 nM
- binding result [5]: no binding (tested: 100 nM)
- koff (antigen hB7-H3-His [6]): 0.000155 s⁻¹
- kon (antigen hB7-H3-His [6]): 886000 M⁻¹ s⁻¹
- % of cells in gate V1-R at 0.411 nM [8]: 36.8%
- % of cells in gate V1-R at 1.23 nM [8]: 86.4%
- % of cells in gate V1-R at 3.7 nM [8]: 94%
- % of cells in gate V1-R at 11.11 nM [8]: 97.2%
- % of cells in gate V1-R at 33.33 nM [8]: 98.9%
- % of cells in gate V1-R at 100 nM [8]: 99.6%
- % of cells in gate P3 at 100 nM [9]: 0.4%
- % of cells in gate P3 at 100 nM [10]: 0.7%
- binding result [11]: no binding (tested: 100 nM)
- Kd (antigen hB7-H3-His [12]): 0.175 nM
B1: Antibody V3 (antibody, human IgG1, kappa, V domains shown)
VH: EVQLVQSGAEVKKSGESLKISCKASGYTFTDYDINWVRQMPGKGLEWIGWIFPGDDTTKYNEKFKGQVTLSADKSTNTAYMQWSSLKASDTAMYYCARSPSFDYWGQGTLVTVSS
VL: QIVLTQSPGTLSLSPGERATLSCSASSTIGFMYWYQQKPGQAPRRWIYDTSKLASGVPDRFSGSGSGTDYTLTISRLEPEDFAVYYCHQRSSYPTFGQGTKVEIKR
notes: Humanized from chimeric antibody M1; also called humanized antibody V3
- binding result [7]: no binding (tested: initial concentration of 2 µg/mL)

Reference: patent US20250262316A1 (BIO THERA SOLUTIONS, published 2025)
